The text below walks through data of patent US20240269235A1 (Gilead, published 2024).

For test [1], the target named is T1, human IL-2Rα on Treg cells (CD3+, CD4+, CD25hi, FoxP3+) of human PBMC (human, UniProt P01589 22-272).
T1 sequence (looked up): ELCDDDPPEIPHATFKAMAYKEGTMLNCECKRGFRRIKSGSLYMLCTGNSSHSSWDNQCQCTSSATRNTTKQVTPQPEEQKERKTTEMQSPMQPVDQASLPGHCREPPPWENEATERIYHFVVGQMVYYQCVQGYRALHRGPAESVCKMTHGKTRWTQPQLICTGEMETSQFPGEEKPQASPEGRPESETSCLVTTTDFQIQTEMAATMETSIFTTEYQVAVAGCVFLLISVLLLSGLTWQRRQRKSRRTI
Nature of the test: cell-based or functional assay.

In test [2] the target is T2, trimeric murine IL-2 receptor (IL-2Rα, IL-2Rβ, and IL-2Rγ) on CTLL-2 cells (murine, UniProt P01590 22-268; P16297 27-539; P34902 23-369).
T2 sequence (looked up) 1: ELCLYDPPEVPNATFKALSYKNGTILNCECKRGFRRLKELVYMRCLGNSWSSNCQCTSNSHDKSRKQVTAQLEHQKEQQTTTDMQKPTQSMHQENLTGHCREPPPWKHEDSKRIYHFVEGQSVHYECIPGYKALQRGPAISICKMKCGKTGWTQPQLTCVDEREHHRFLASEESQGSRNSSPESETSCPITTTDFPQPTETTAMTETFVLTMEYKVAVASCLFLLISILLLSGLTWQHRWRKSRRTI
T2 sequence (looked up) 2: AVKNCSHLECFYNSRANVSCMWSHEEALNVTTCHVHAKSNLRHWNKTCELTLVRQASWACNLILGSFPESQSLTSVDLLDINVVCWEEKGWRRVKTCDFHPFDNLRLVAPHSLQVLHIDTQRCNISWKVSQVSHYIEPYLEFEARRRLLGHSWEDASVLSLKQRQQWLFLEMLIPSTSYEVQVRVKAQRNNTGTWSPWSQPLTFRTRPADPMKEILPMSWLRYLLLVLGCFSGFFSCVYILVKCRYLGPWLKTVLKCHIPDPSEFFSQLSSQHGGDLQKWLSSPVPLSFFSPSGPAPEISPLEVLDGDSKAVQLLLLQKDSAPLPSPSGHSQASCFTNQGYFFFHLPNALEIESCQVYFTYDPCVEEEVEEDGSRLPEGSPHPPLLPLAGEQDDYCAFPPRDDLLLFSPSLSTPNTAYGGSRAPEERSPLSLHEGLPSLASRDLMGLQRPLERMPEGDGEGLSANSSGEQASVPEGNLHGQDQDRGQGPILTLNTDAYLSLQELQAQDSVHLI
T2 sequence (looked up) 3: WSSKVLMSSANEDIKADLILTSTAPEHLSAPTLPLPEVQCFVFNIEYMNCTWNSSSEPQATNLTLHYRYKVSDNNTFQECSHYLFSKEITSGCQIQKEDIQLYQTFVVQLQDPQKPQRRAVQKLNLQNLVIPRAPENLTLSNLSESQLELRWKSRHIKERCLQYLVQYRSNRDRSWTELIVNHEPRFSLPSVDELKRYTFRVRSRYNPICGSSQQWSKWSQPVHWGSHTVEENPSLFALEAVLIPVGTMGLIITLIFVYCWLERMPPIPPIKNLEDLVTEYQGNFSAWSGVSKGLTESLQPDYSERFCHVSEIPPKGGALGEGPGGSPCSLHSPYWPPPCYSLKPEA
Kind of test: cell-based or functional assay.

For test [3], the target named is T3, IL-2Rα (recombinant IL-2 receptor α, R&D Systems Cat #: 223-2A/CF), biotinylated (human, UniProt P01589 22-213, limits assumed, biotinylated using sulfo-NHS-LC-LC-Biotin).
T3 construct: Bought reagent; also used here as the IL-2Rα partner of the in-silico analysis of PDB 2B5I (another construct); also called IL-2RA; CD25
T3 sequence (looked up): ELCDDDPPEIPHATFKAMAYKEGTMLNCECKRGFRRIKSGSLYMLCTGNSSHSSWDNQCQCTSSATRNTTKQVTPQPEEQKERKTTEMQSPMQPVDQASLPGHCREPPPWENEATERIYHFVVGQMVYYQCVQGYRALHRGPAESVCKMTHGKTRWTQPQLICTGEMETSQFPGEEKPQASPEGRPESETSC
Kind of test: SPR (Biacore), C1 or CM5 chip, biotinylated receptor on neutravidin. The text has this:
(§1) Data for binding of Fc-IL-2 variant fusion proteins to IL-2Rα, IL-2Rβ and IL-2Rβγ heterodimer were collected on a Biacore platform using either C1 or CM5 chips. Neutravidin was immobilized using standard amine coupling methods and used to capture biotinylated receptors. Commercially sourced IL-2Rα (R&D Systems Cat #: 223-2A/CF) and IL-2Rβ receptors (R&D Systems Cat #:224-2B-025/CF) were biotinylated using sulfo-NHS-LC-LC-Biotin, desalted, and then captured on the neutravidin surfaces. […] Distinct purification tags were appended to the C-terminus of each chain. A FLAG epitope tag ([…]; SEQ ID NO: 257) was added at the C-terminus of IL-2Rβ subunit, followed by C-terminal Hiss tag ([…]; SEQ ID NO: 258). An AviTag™ ([…]; SEQ ID NO: 259) motif on the IL-2Rγ subunit allowed for site-specific biotinylation of the heterodimer.
(§2) Fc IL 2 fusion protein variants, Fc protein, and Proleukin were injected at various concentrations over these surfaces. Kinetic data obtained from these injections was used to extract kₒₙ and koff to calculate KD (KD=koff/kₒₙ). Experiments were run at 25° C. in HBS-EP+ running buffer (10 mM HEPES, 150 mM NaCl, 3 mM EDTA, 0.05% Tween20, pH 7.4 with 0.1 mg/ml BSA). Data shown in Table 5 for Fc IL-2 fusion protein variants binding to the indicated IL-2R surfaces were derived from the global fitting of data obtained from 2-5 independent surfaces.

The target of test [4] is T4, IL-2Rβ (recombinant IL-2 receptor β, R&D Systems Cat #:224-2B-025/CF), biotinylated (UniProt P14784 27-239, limits assumed, biotinylated using sulfo-NHS-LC-LC-Biotin).
T4 construct: Bought reagent; also called IL-2RB; CD122
T4 sequence (looked up): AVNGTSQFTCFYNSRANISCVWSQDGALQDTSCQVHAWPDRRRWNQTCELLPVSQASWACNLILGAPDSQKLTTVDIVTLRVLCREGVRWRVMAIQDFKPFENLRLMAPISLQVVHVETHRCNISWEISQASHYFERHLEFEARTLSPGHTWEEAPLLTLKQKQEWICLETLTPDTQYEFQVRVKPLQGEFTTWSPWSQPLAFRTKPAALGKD
The description is as above.
Text: as §1, §2

For test [5], the target named is T5, IL-2Rβγ heterodimer, custom biotinylated Fc fusion protein (human IL-2Rβ 27-240-Fc-FLAG / human IL-2Rγ … (human, site-specific biotinylation at the AviTag)).
T5 construct: Extracellular regions fused to IgG1 knob-in-hole Fc subunits with tags; also called IL-2 receptor βγ heterodimer; Fc-IL-2Rβγ
The description is as above.
Text: as §1, §2

Where only a bound is given, the exact number is not on record here.

T5 sequence (chain, as listed by the source limits assumed): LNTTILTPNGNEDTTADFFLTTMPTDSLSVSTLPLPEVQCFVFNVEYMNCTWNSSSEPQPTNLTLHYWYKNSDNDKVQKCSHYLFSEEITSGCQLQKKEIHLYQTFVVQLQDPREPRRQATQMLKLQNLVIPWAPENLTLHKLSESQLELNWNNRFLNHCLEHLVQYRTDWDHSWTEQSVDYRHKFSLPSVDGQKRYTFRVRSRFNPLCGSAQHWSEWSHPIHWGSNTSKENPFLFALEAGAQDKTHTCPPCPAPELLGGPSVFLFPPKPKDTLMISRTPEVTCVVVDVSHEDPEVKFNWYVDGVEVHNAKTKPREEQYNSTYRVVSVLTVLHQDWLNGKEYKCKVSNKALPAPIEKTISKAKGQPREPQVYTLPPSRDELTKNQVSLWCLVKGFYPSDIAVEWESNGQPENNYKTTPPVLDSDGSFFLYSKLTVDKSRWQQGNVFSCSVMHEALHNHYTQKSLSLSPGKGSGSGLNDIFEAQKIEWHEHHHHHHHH

B1: Fc-IL-2 heterodimer 117.46 (hIL-2v_Δ1-5_C125S), native IL-2Rα binding interface (Fc fusion)
chain 1: ESKYGPPCPPCPAPEAAGGPSVFLFPPKPKDTLMISRTPEVTCVVVDVSQEDPEVQFNWYVDGVEVHNAKTKPREEQFNSTYRVVSVLTVLHQDWLNGKEYKCKVSNKGLPSSIEKTISKAKGQPREPQVYTLPPSQEEMTKNQVSLWCLVKGFYPSDIAVEWESNGQPENNYKTTPPVLDSDGSFFLYSRLTVDKSRWQEGNVFSCSVMHEALHNHYTQKSLSLSLGGGGGSGGGGSGGGGSGGGGSSTKKTQLQLEHLLLDLQMILNGINNYKNPKLTRMLTFKFYMPKKATELKHLQCLEEELKPLEEVLNLAQSKNFHLRPRDLISNINVIVLELKGSETTFMCEYADETATIVEFLNRWITFSQSIISTLT
chain 2: ESKYGPPCPPCPAPEAAGGPSVFLFPPKPKDTLMISRTPEVTCVVVDVSQEDPEVQFNWYVDGVEVHNAKTKPREEQFNSTYRVVSVLTVLHQDWLNGKEYKCKVSNKGLPSSIEKTISKAKGQPREPQVYTLPPSQEEMTKNQVSLSCAVKGFYPSDIAVEWESNGQPENNYKTTPPVLDSDGSFFLVSRLTVDKSRWQEGNVFSCSVMHEALHNRFTQKSLSLSLGK
notes: hIgG4 knob-in-hole Fc heterodimer
For B1, the “Treg EC50, STAT5 activation (PBMC STAT5 assay)” value in test [1] is less than 0.001 nM. In test [2], the “STAT5 activation of CTLL-2 cells, EC50” value worked out at 0.002 nM. Further, the Kd was 15 nM in test [3], 7000 nM in test [4] and 0.142 nM in test [5].

In general, Kd refers to the free concentration of one partner at which half of the binding sites on the other are occupied at equilibrium, for simple one-to-one binding.
